B1: CD40bp fused to the activation domain of GAL4 (other, not shown: large carriers)
chain: MESSKKMDSPGALQTNPPLKLHTDRSAGTPVFVPEQGGYKEKFVKTVEDKYKCEKCHLVLCSPKQTECGHRFCESCMAALLSSSSPKCTACQESIVKDKVFKDNCCKREILALQIYCRNESRGCAEQLMLGHLVHLKNDCHFEELPCVRPDCKEKVLRKDLRDHVEKACKYREATCSHCKSQVPMIALQKHEDTDCPCVVVSCPHKCSVQTLLRSELSAHLSECVNAPSTCSFKRYGCVFQGTNQQIKAHEASSAVQHVNLLKEWSNSLEKKVSLLQNESVEKNKSIQSLHNQICSFEIEIERQKEMLRNNESKILHLQRVIDSQAEKLKELDKEIRPFRQNWEEADSMKSSVESLQNRVTELESVDKSAGQVARNTGLLESQLSRHDQMLSVHDIRLADMDLGFQVLETASYNGVLIWKIRDYKRRKQEAVMGKTLSLYSQPFYTGYFGYKMCARVYLNGDGMGKGTHLSLFFVIMRGEYDALLPWPFKQKVTLMLMDQGSSRRHLGDAFKPDPNSSSFKKPTGEMNIASGCPVFVAQTVLENGTYIKDDTIFIKVIVDTSDLPDP
notes: Prey from a human B-cell cDNA library; also called CD40bp (yeast prey, pACT)
B2: cytoplasmic domain of the p55 TNF receptor (amino acids 206-426) fused to the DNA-binding domain of GAL4 (other, UniProt P04386 1-147, looked up)
chain: MKLLSSIEQACDICRLKKLKCSKEKPKCAKCLKNNWECRYSPKTKRSPLTRAHLTEVESRLERLEQLFLLIFPREDLDMILKMDSLQDIKALLTGLFVQDNVNKDAVTDRLASVETDMPLTLRQHRISATSSSEESSNKGQRQLTVSRYQRWKSKLYSIVCGKSTPEKEGELEGTTTKPLAPNPSFSPTPGFTPTLGFSPVPSSTFTSSSTYTPGDCPNFAAPRREVAPPYQGADPILATALASDPIPNPLQKWEDSAHKPQSLDTDDPATLYAVVENVPPLRWKEFVRRLGLSDHEIDRLELQNGRCLREAQYSMLATWRRRTPRREATLELLGRVLRDMDLLGCLEDIEEALCGPAALPPAPSLLR
notes: The numbering probably counts on the mature receptor; also called pTNFR
B3: GSTCD40T (GST fused to the native CD40 cytoplasmic domain) (other, human, UniProt P25942 216-277, looked up)
chain: KKVAKKPTNKAPHPKQEPQEINFPDDLPGSNTAAPVQETLHGCQPVTQEDGKESRISVQERQ
notes: range 216-279; Immobilized on glutathione-agarose beads; also called native CD40 (GSTCD40T); not shown: glutathione S-transferase of the vector pGSTag

Tests used:
[1] = biological target: yeast Ser-Thr kinase SNF1 fused to the DNA-binding domain of GAL4 (yeast, UniProt P04386 1-147; P06782 1-633, limits assumed); experiment: yeast two-hybrid cotransformation, beta-galactosidase filter assay
Excerpt: (§1) Yeast Two-hybrid Screen—Using a modification of the method of Harper et al. (1993) *Cell* 75:805-816, a hybrid gene encoding the GAL4 DNA-binding domain (amino acids 1-147), hemagglutinin ("HA") epitope tag, and CD40 cytoplasmic region (amino acids 216-279) was constructed in the yeast bait vector pAS1CYH2. This construct was designated GAL4CD40, and expression of the fusion protein was confirmed by anti-HA immunoblotting. This bait plasmid was cotransformed with a human B-cell cDNA expression library (prey) fused to the activation domain of GAL4 in the pACT plasmid. Interaction between bait- and prey-encoded genes in the Y190 yeast strain reconstitutes GAL4 as an active transcriptional complex, allowing growth in the absence of histidine and activation of the β-galactosidase reporter gene. Thirty-six of the 10^6 transformants screened grew in the absence of histidine and had detectable β-galactosidase staining within 10 minutes of incubation with the chromogenic substrate 5-bromo-4-chloro-3-indolyl β-D-galactoside. […] Cotransformation assays were repeated in the yeast Y190 strain, where CD40bp fused to the activation domain of GAL4 was cotransformed with native CD40 (pCD40T) or the indicated heterologous baits expressed as fusions with the DNA-binding domain of GAL4. […]

[2] = biological target: B1; experiment: as above
Excerpt: as §1

[3] = biological target: [35S]methionine-labeled luciferase protein (UniProt P08659 1-550 = luciferase, limits assumed, [35S]methionine label); experiment: GST pull-down of in vitro translated 35S-labeled protein, autoradiography
Method: GST Fusion Protein Expression and In Vitro Binding Assay—Native (CD40T) and mutant (CD40A) CD40 sequences used in the construction of the yeast bait vectors were excised and subcloned into the glutathione S-transferase ("GST") fusion protein vector pGSTag (as described in Ron et al. (1992) *BioTechniques* 13:866-869) and transformed into the *Escherichia coli* strain BL21 […] pLysS (as described in Studier et al. (1991) *J. Mol. Bio.* 219:37-44). GST and GST fusion proteins were prepared using published procedures of Studier et al. (1991) supra, and the recombinant proteins were immobilized onto glutathione-agarose beads at a concentration of about 8 mg/ml (as described in Harper et al. (1993) supra).
Figure 2: FIGS. 2A and 2B show the interaction of in vitro translated CD40bp with GST fusion proteins. [^35S]Methionine-labeled CD40bp or luciferase protein as control was incubated with GST alone, GSTCD40T (native CD40 cytoplasmic domain), or GSTCD40A (mutant CD40 cytoplasmic domain $Thr^234 \rightarrow Ala$). Following incubation and washing, GST beads were boiled in SDS-sample buffer and resolved on a 10% acrylamide gel, and bound protein was visualized by autoradiography.

Sequence of [35S]methionine-labeled luciferase protein (P08659 whole entry, the tested form may be a part): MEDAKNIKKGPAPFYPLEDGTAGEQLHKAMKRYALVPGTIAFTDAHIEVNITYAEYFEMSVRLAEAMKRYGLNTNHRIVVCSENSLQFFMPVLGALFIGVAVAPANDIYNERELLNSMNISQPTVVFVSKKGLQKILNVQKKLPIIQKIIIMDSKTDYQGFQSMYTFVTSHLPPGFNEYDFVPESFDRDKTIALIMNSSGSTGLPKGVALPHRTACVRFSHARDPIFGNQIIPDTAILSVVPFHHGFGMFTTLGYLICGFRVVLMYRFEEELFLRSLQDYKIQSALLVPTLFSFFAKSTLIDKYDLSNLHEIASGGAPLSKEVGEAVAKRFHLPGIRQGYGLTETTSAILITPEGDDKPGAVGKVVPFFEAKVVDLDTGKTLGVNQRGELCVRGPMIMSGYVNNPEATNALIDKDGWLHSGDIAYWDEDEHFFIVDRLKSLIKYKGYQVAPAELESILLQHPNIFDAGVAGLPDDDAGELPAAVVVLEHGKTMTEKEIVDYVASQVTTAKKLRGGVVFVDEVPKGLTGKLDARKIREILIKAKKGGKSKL

B1
binding result [1]: no binding

B2
binding result [2]: no binding

B3
binding result [3]: no binding
